# US7815907B2, “Antibodies to insulin-like growth factor I receptor” (Amgen Fremont Inc., priority 2001, dated 2010)
# Assays:
# [1] = target: T1, IGF-IR (Homo sapiens, UniProt P08069); test: IGF-IR levels in 3T3/IGF-IR tumors by western blot after antibody and/or adriamycin; format: in vivo, nude mice; parameters: expressed in transfected cells; host or cells: NIH-3T3 (mouse fibroblasts); conditions: 72 hours after single 250 μg 2.13.2 i.p. or 7.5 mg/kg adriamycin i.v.
# Experimental: Tumors were induced in nude mice as described in Example IX. Mice with established subcutaneous tumors of approximately 400 mm^3 were treated with a single injection of 250 μg 2.13.2 antibody (i.p.) or with 7.5 mg/kg adriamycin (i.v.), either as single agents or in combination, as described in Example IX. 72 hours after administration of the agents, tumors were extracted as described in Example VIII, and equal amounts of the tumor extracts were subjected to sodium […] polyacrylamide gel electrophoresis (SDS PAGE) and western blot analysis using the anti-IGF-IR antibody SC-713 (Santa Cruz). […] Each lane represents equal amounts of protein from individual tumors from individual mice.
# [2] = target: T2, extracellular domain of IGF-IR (Homo sapiens, UniProt P08069); test: BIAcore affinity measurement, Protocol 1; format: binding; conditions: BIAcore 3000; antibody captured on protein-A, IGF-IR extracellular domain injected
# T2 construct: Different concentrations of the extracellular domain of IGF-IR were injected on the sensorchip
# Experimental: We performed affinity measures of purified antibodies by surface plasmon resonance using the BIAcore 3000 instrument, following the manufacturer's protocols.
# To perform kinetic analyses, protein-A was immobilized on the sensorchip surfaces of the BIAcore. The sensorchip was then used to capture the anti-IGF-IR antibodies of the present invention. Different concentrations of the extracellular domain of IGF-IR were injected on the sensorchip and the binding and dissociation kinetics of the interactions between the anti-IGF-IR antibodies and the extracellular domain of IGF-IR were analyzed. The data were evaluated with global fit Langmuir 1:1, using baseline drift models available on the BIAevaluation software provided by BIAcore.
# [3] = test system: IGF-IR from the marmoset; test: Species crossreactivity by immunoprecipitation/Western blot; format: binding; conditions: immunoprecipitation, antibody 1 μg/ml
# Experimental: (§1) To perform immunoprecipitation experiments, we plated cells in DMEM high glucose media supplemented with L-glutamine (0.29 mg/ml), 10% heat-inactivated FBS, and 500 μg/ml each of geneticin, penicillin and streptomycin to 50% confluence in T25 flasks. We then added 100 μl of an antibody of the invention in Hank's buffered saline solution (HBSS; Gibco BRL) at a concentration of 1 μg/ml. We incubated the plates for 30 minutes at 37° C. in an incubator and then stimulated the cells with IGF-I at 100 ng/ml for 10 minutes at room temperature. We lysed the cells in RIPA buffer (Harlow and Lane, supra) and immunoprecipitated IGF-IR with 2 μg of pan-specific SC-713 anti-IGF-IR antibody (Santa Cruz) plus protein A agarose beads for 1 hour at 4° C. We pelleted the beads and wash three times with PBS/T (PBS+0.1% Tween-20) and then boiled the beads in 40 μl Laemmli buffer containing 5% βME.
# (§2) The samples prepared as described above were then analyzed by Western blot. We loaded 12 μl of each sample per lane on 4-10% gradient Novex™ gels run with 1×MES buffer (Novex™). Gels were run at 150V for 1 hour or at 200V for approximately 30 minutes. We then transferred the gel to a membrane in Novex™ transfer buffer with 10% methanol either overnight at 100 mA or for 1-1.5 hours at 250 mA. We then allowed the membrane to dry completely and blocked at room temperature with TBS (Tris-buffered saline pH 8.0) containing Superblock (Pierce Chemical Co.). We added the IGF-IR blotting antibody SC713 (Santa Cruz) to detect immunoprecipitated IGF-IR.
# [4] = test system: Rhesus IGF-IR; test: as above; format: binding; conditions: immunoprecipitation, antibody 1 μg/ml
# Experimental: as §1, §2
# [5] = test system: canine IGF-IR; test: as above; format: binding; conditions: immunoprecipitation, antibody 1 μg/ml
# Experimental: as §1, §2
# [6] = test system: guinea pig IGF-IR; test: as above; format: binding; conditions: immunoprecipitation, antibody 1 μg/ml
# Experimental: as §1, §2
# [7] = test system: rabbit IGF-IR; test: as above; format: binding; conditions: immunoprecipitation, antibody 1 μg/ml
# Experimental: as §1, §2
# [8] = test system: COS7 IGF-IR; test: as above; format: binding, old world monkey; conditions: immunoprecipitation, antibody 1 μg/ml
# Experimental: as §1
# (§3) The samples prepared as described above were then analyzed by Western blot. We loaded 12 μl of each sample per lane on 4-10% gradient Novex™ gels run with 1×MES buffer (Novex™). Gels were run at 150V for 1 hour or at 200V for approximately 30 minutes. We then transferred the gel to a membrane in Novex™ transfer buffer with 10% methanol either overnight at 100 mA or for 1-1.5 hours at 250 mA. […]
# [9] = target: T1, IGF-IR; test: as above; format: binding; parameters: on cells from a variety of animals; endogenous in cells; conditions: immunoprecipitation, antibody 1 μg/ml
# Experimental: as §1, §3
# [10] = target: T3, extracellular domain (ECD) of IGF-IR (Homo sapiens, UniProt P08069); test: BIAcore competition (epitope mapping); format: binding; conditions: first antibody bound under saturating conditions
# T3 construct: Different concentrations of the extracellular domain of IGF-IR were injected on the sensorchip
# Source text: We conducted BIAcore competition studies to determine whether the antibodies of this invention bind to the same or distinct site on the IGF-IR molecule. We bound the extracellular domain (ECD) of IGF-IR to a BIAcore sensorchip as described above in Example II. We bound a first antibody of the invention to this sensorchip-bound IGF-IR under saturating conditions. We then measured the ability of subsequent secondary antibodies of the invention to compete with the primary antibody for binding to IGF-IR.
molecule,measurement,setting,value
"COc1cccc2c1C(=O)c1c(O)c3c(c(O)c1C2=O)C[C@@](O)(C(=O)CO)C[C@@H]3O[C@H]1C[C@H](N)[C@H](O)[C@H](C)O1 [adriamycin, reference compound]","IGF-IR levels in tumors, single agent",[1],little effect on IGF-IR levels
"4.17.3: human IgG2κ monoclonal antibody specific for IGF-IR from hybridoma 4.17.3 (ATCC PTA-2793); named as activating antibody (antibody, V domains shown) VH: PGLVKPSETLSLTCTVSGGSISSYYWSWIRQPPGKGLEWIGYIYYSGSTNYNPSLKSRVTISVDTSKNQFSLKLSSVTAADTAVYYCARTYSSSFYYYGMDVWGQGTTVTVSS VL: GDRVTITCRASQSISTFLNWYQQKPGKAPKLLIHVASSLQGGVPSRFSGSGSGTDFTLTISSLQPEDFATYYCQQSYNAPLTFGGGTKVEIK",Kd,[2],13 nM
2.12.1: human IgG2κ monoclonal antibody specific for IGF-IR from hybridoma 2.12.1 (ATCC PTA-2792) (antibody) heavy: QAQLVESGGGLVKPGGSLRLSCAASGFTFSDYYMSWIRQAPGKGLEWVSYISSSGSTRDYADSVKGRFTISRDNAKNSLYLQMNSLRAEDTAVYYCVRDGVETTFYYYYYGMDVWGQGTTVTVSSASTKGPSVFPLAPCSRSTSESTAALGCLVKDYFPEPVTVSWNSGALTSGVHTFPAVLQSSGLYSLSSVVTVPSSNFGTQTYTCNVDHKPSNTKVDKTVERKCCVECPPCPAPPVAGPSVFLFPPKPKDTLMISRTPEVTCVVVDVSHEDPEVQFNWYVDGVEVHNAKTKPREEQFNSTFRVVSVLTVVHQDWLNGKEYKCKVSNKGLPAPIEKTISKTKGQPREPQVYTLPPSREEMTKNQVSLTCLVKGFYPSDIAVEWESNGQPENNYKTTPPMLDSDGSFFLYSKLTVDKSRWQQGNVFSCSVMHEALHNHYTQKSLSLSPGK light: DIQMTQSPSSLSASVGDRVTFTCRASQDIRRDLGWYQQKPGKAPKRLIYAASRLQSGVPSRFSGSGSGTEFTLTISSLQPEDFATYYCLQHNNYPRTFGQGTEVEIIRTVAAPSVFIFPPSDEQLKSGTASVVCLLNNFYPREAKVQWKVDNALQSGNSQESVTEQDSKDSTYSLSSTLTLSKADYEKHKVYACEVTHQGLSSPVTKSFNRGEC,Kd,[2],7.37 nM
same,binding to marmoset IGF-IR,[3],not
same,binding to Rhesus IGF-IR,[4],able to bind
same,binding to canine IGF-IR,[5],not
same,binding to guinea pig IGF-IR,[6],not
same,binding to rabbit IGF-IR,[7],not
same,binding to COS7 IGF-IR,[8],able to bind
same,binding to human IGF-IR,[9],able to bind
"2.14.3: human IgG2κ monoclonal antibody specific for IGF-IR from hybridoma 2.14.3 (ATCC PTA-2790) (antibody, V domains shown) VH: GPGLVKPSETLSLTCTVSGGSISNYYWSWIRQPAGKGLEWIGRIYTSGSPNYNPSLKSRVTMSVDTSKNQFSLKLNSVTAADTAVYYCAVTIFGVVIIFDYWGQGTLVTVSS VL: SSLSASVGDRVTFTCRASQDIRRDLGWYQQKPGKAPKRLIYAASRLQSGVPSRFSGSGSGTEFTLTISSLQPEDFATYYCLQHNNYPRTFGQGTEVEIIR",Kd,[2],0.641 nM
same,binding site on IGF-IR (competition between antibodies),[10],bind to sites on IGF-IR that are different
